{"source": "paper PMC4041212", "key": {"[1]": {"biological_target": "BRCA1 (UniProt P38398)", "experiment": "reverse co-IP", "details": "reference: wild type EXO1; sites S639,T732,S815,T824"}, "[2]": {"biological_target": "BRCA1 (UniProt P38398)", "experiment": "anti-V5 co-IP, BRCA1 blot", "details": "reference: wild type V5-EXO1; sites S639,T732,S815,T824"}}}
{"substance": "EXO1 (from UniProt Q9UQ84) 4A-EXO1", "values": [{"measurement": "binding against the reference", "setting": "[1]", "result": "weaker"}, {"measurement": "binding against the reference", "setting": "[2]", "result": "weaker"}]}
